Source: patent US20080027145A1, “Therapeutic Molecules and Methods for Generating and/or Selecting Same” (priority 2004, published 2008)

Tests used:
[1] = target: mouse Mcl-1 ΔN151 ΔC23 (mouse) (UniProt P97287); experiment: Biacore solution competition against immobilised mouse wtBimBH3
mouse A1 ΔC20 (mouse) [2] = target: mouse A1 ΔC20 (mouse) (UniProt Q07440); experiment: as above
Bcl-2, BCl-xL and Bcl-w = experiment: solution competition on Biacore
mouse A1 ΔC20 (mouse) [3] = target: mouse A1 ΔC20 (mouse) (UniProt Q07440); experiment: solution competition on Biacore

Chain of mouse Mcl-1 ΔN151 ΔC23 (mouse) (P97287 other isoform, or with tags, fused parts or gaps mutant): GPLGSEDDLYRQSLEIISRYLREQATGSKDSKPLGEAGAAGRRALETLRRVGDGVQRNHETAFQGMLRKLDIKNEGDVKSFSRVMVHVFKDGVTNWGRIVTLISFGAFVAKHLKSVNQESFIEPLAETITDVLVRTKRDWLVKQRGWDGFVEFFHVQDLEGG
Chain of mouse A1 ΔC20 (mouse) (Q07440 other isoform, or with tags, fused parts or gaps mutant): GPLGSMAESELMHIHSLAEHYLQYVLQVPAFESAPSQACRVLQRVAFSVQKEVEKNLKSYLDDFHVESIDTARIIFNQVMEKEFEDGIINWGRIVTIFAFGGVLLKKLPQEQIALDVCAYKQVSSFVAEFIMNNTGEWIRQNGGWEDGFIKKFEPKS

Row | IC50 [1] [µM] | IC50 (mouse A1 ΔC20 (mouse) [2]) [µM] | IC50 (Bcl-2, BCl-xL and Bcl-w) [µM] | IC50 (mouse A1 ΔC20 (mouse) [3]) [µM] | Binder
1 | 0.024 | 0.18 | – | – | PAELEVECATQLRRFGDKLNFRQKLL [Noxa (18-43) BH3 peptide, human]
2 | > 100 | 15 | 0.0053 to 0.03 | 15 | NLWAAQRYGRELRRMSDEFVDSFKKG [Bad (103-128) BH3 peptide, human]
3 | – | 0.0093 | – | – | DIIRNIARHLAQVGDSMDRSIPPG [Bid (81-104) BH3 peptide, human]
4 | 1.1 | 1.8 | – | – | HRAEVQIARKLQCIADQFHRLHTQ [m Bmf (128-151) BH3 peptide]
